# Laboratory results as given in the Human Domainome abundance scans (Beltran et al. 2025).
# ± gives the uncertainty stated by the source.
# Assay: abundance fitness (aPCA) (normalised: wild type 0, dead -1); higher = more abundant; growth selection in yeast, the domain comes from the species named
# Conditions: Homo sapiens
row,Substance,abundance fitness
1,"Transcriptional activator Myb A167C, P10242",-0.17 ± 0.12
2,"Transcriptional activator Myb A167D, P10242",-0.177 ± 0.16
3,"Transcriptional activator Myb A167E, P10242",0.009 ± 0.13
4,"Transcriptional activator Myb A167F, P10242",-0.092 ± 0.12
5,"Transcriptional activator Myb A167G, P10242",0.045 ± 0.06
6,"Transcriptional activator Myb A167H, P10242",0.258 ± 0.24
7,"Transcriptional activator Myb A167I, P10242",-0.253 ± 0.22
8,"Transcriptional activator Myb A167K, P10242",-0.124 ± 0.11
9,"Transcriptional activator Myb A167L, P10242",-0.224 ± 0.079
10,"Transcriptional activator Myb A167M, P10242",-0.313 ± 0.15
11,"Transcriptional activator Myb A167N, P10242",-0.058 ± 0.11
12,"Transcriptional activator Myb A167P, P10242",0.037 ± 0.12
13,"Transcriptional activator Myb A167Q, P10242",0.015 ± 0.14
14,"Transcriptional activator Myb A167R, P10242",-0.146 ± 0.069
15,"Transcriptional activator Myb A167S, P10242",-0.095 ± 0.09
16,"Transcriptional activator Myb A167T, P10242",-0.126 ± 0.12
17,"Transcriptional activator Myb A167V, P10242",-0.083 ± 0.1
18,"Transcriptional activator Myb A167W, P10242",-0.27 ± 0.063
19,"Transcriptional activator Myb A167Y, P10242",-0.172 ± 0.12
20,"Transcriptional activator Myb A170C, P10242",-0.137 ± 0.13
21,"Transcriptional activator Myb A170D, P10242",-0.692 ± 0.12
22,"Transcriptional activator Myb A170E, P10242",-0.285 ± 0.12

row,Substance,abundance fitness
1,"Transcriptional activator Myb A170F, P10242",-0.896 ± 0.19
2,"Transcriptional activator Myb A170G, P10242",-0.229 ± 0.058
3,"Transcriptional activator Myb A170H, P10242",-0.716 ± 0.26
4,"Transcriptional activator Myb A170I, P10242",-1.45 ± 0.42
5,"Transcriptional activator Myb A170K, P10242",-0.581 ± 0.14
6,"Transcriptional activator Myb A170L, P10242",-0.743 ± 0.082
7,"Transcriptional activator Myb A170M, P10242",-0.393 ± 0.11
8,"Transcriptional activator Myb A170N, P10242",-0.655 ± 0.28
9,"Transcriptional activator Myb A170P, P10242",-0.809 ± 0.18
10,"Transcriptional activator Myb A170Q, P10242",-0.056 ± 0.094
11,"Transcriptional activator Myb A170R, P10242",-0.516 ± 0.059
12,"Transcriptional activator Myb A170S, P10242",-0.038 ± 0.087
13,"Transcriptional activator Myb A170T, P10242",-0.771 ± 0.12
14,"Transcriptional activator Myb A170V, P10242",-0.428 ± 0.063
15,"Transcriptional activator Myb A170W, P10242",-0.811 ± 0.12
16,"Transcriptional activator Myb A170Y, P10242",-1.08 ± 0.18
17,"Transcriptional activator Myb A180C, P10242",-0.021 ± 0.12
18,"Transcriptional activator Myb A180D, P10242",-0.022 ± 0.12
19,"Transcriptional activator Myb A180E, P10242",0.062 ± 0.098
20,"Transcriptional activator Myb A180G, P10242",-0.244 ± 0.049
21,"Transcriptional activator Myb A180H, P10242",-0.23 ± 0.097
22,"Transcriptional activator Myb A180I, P10242",-0.005 ± 0.32

row,Substance,abundance fitness
1,"Transcriptional activator Myb A180K, P10242",-0.266 ± 0.082
2,"Transcriptional activator Myb A180L, P10242",-0.111 ± 0.073
3,"Transcriptional activator Myb A180M, P10242",-0.058 ± 0.16
4,"Transcriptional activator Myb A180N, P10242",-0.134 ± 0.33
5,"Transcriptional activator Myb A180P, P10242",-0.76 ± 0.12
6,"Transcriptional activator Myb A180Q, P10242",-0.002 ± 0.12
7,"Transcriptional activator Myb A180R, P10242",-0.327 ± 0.051
8,"Transcriptional activator Myb A180S, P10242",-0.051 ± 0.083
9,"Transcriptional activator Myb A180T, P10242",-0.174 ± 0.078
10,"Transcriptional activator Myb A180W, P10242",-0.28 ± 0.11
11,"Transcriptional activator Myb A180Y, P10242",-0.803 ± 0.43
12,"Transcriptional activator Myb D152A, P10242",-0.24 ± 0.066
13,"Transcriptional activator Myb D152C, P10242",-0.833 ± 0.14
14,"Transcriptional activator Myb D152E, P10242",0.105 ± 0.077
15,"Transcriptional activator Myb D152F, P10242",-0.752 ± 0.12
16,"Transcriptional activator Myb D152G, P10242",-0.452 ± 0.053
17,"Transcriptional activator Myb D152H, P10242",-0.695 ± 0.22
18,"Transcriptional activator Myb D152K, P10242",-0.311 ± 0.1
19,"Transcriptional activator Myb D152L, P10242",-0.249 ± 0.075
20,"Transcriptional activator Myb D152M, P10242",-0.381 ± 0.15
21,"Transcriptional activator Myb D152N, P10242",-0.227 ± 0.074
22,"Transcriptional activator Myb D152Q, P10242",-0.065 ± 0.12

row,Substance,abundance fitness
1,"Transcriptional activator Myb D152R, P10242",-0.519 ± 0.068
2,"Transcriptional activator Myb D152S, P10242",-0.287 ± 0.072
3,"Transcriptional activator Myb D152T, P10242",-0.138 ± 0.082
4,"Transcriptional activator Myb D152V, P10242",-0.304 ± 0.067
5,"Transcriptional activator Myb D152W, P10242",-0.403 ± 0.098
6,"Transcriptional activator Myb D152Y, P10242",-0.38 ± 0.12
7,"Transcriptional activator Myb D178N, P10242",-0.533 ± 0.35
8,"Transcriptional activator Myb E149D, P10242",-0.008 ± 0.27
9,"Transcriptional activator Myb E149G, P10242",-0.143 ± 0.16
10,"Transcriptional activator Myb E149L, P10242",0.009 ± 0.22
11,"Transcriptional activator Myb E149N, P10242",-0.526 ± 0.35
12,"Transcriptional activator Myb E149R, P10242",-0.203 ± 0.12
13,"Transcriptional activator Myb E149S, P10242",-0.188 ± 0.4
14,"Transcriptional activator Myb E149T, P10242",-0.634 ± 0.43
15,"Transcriptional activator Myb E149W, P10242",-0.719 ± 0.47
16,"Transcriptional activator Myb E150A, P10242",0.099 ± 0.075
17,"Transcriptional activator Myb E150C, P10242",-0.219 ± 0.1
18,"Transcriptional activator Myb E150D, P10242",-0.152 ± 0.095
19,"Transcriptional activator Myb E150F, P10242",-0.129 ± 0.16
20,"Transcriptional activator Myb E150H, P10242",-0.41 ± 0.15
21,"Transcriptional activator Myb E150I, P10242",-0.172 ± 0.12
22,"Transcriptional activator Myb E150K, P10242",0.117 ± 0.11

row,Substance,abundance fitness
1,"Transcriptional activator Myb E150L, P10242",-0.17 ± 0.064
2,"Transcriptional activator Myb E150M, P10242",-0.097 ± 0.086
3,"Transcriptional activator Myb E150N, P10242",-0.004 ± 0.15
4,"Transcriptional activator Myb E150P, P10242",-0.468 ± 0.12
5,"Transcriptional activator Myb E150Q, P10242",0.026 ± 0.14
6,"Transcriptional activator Myb E150R, P10242",0 ± 0.061
7,"Transcriptional activator Myb E150T, P10242",-0.103 ± 0.1
8,"Transcriptional activator Myb E150V, P10242",-0.207 ± 0.061
9,"Transcriptional activator Myb E150W, P10242",-0.208 ± 0.083
10,"Transcriptional activator Myb E151A, P10242",-0.597 ± 0.066
11,"Transcriptional activator Myb E151C, P10242",-1.1 ± 0.21
12,"Transcriptional activator Myb E151D, P10242",-0.348 ± 0.15
13,"Transcriptional activator Myb E151F, P10242",-0.927 ± 0.19
14,"Transcriptional activator Myb E151G, P10242",-0.815 ± 0.056
15,"Transcriptional activator Myb E151H, P10242",-0.57 ± 0.13
16,"Transcriptional activator Myb E151I, P10242",-0.49 ± 0.14
17,"Transcriptional activator Myb E151L, P10242",-0.482 ± 0.069
18,"Transcriptional activator Myb E151M, P10242",-0.624 ± 0.12
19,"Transcriptional activator Myb E151N, P10242",-0.674 ± 0.12
20,"Transcriptional activator Myb E151P, P10242",-0.758 ± 0.15
